# Assay results taken from patent publication US20150203577A1 (Chugai, published 2015).
# Residue numbers refer to the chain shown, from its start.
# T1: mouse FcγRII (mouse, UniProt P08101 30-210)
# T1 construct: also called mFcγRII; mFcgRII
# T1 sequence: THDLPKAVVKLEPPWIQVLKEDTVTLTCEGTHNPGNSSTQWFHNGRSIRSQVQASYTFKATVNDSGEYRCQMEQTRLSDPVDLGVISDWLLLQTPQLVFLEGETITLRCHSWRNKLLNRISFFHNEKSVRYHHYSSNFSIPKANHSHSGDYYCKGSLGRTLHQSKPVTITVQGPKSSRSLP
# T2: mouse FcγRIII (mouse, UniProt P08508 31-215)
# T2 construct: also called mFcγRIII; mFcgRIII
# T2 chain: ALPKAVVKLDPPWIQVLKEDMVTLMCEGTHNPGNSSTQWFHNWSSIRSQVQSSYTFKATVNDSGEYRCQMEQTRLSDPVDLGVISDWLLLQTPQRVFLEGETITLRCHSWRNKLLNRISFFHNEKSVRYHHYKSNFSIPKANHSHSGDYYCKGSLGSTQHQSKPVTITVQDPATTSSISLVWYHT
# B1: H237-MB607/MRAL-k0 (antibody, mouse IgG1, kappa)
# heavy: QVQLQESGPGLVKPSETLSLTCAVSGHSISHDHAWSWVRQPPGEGLEWIGFISYSGITNYNPSLQGRVTISRDNSKNTLYLQMNSLRAEDTAVYYCARSLARTTAMDYWGEGTLVTVSSAKTTPPSVYPLAPGSAAQTNSMVTLGCLVKGYFPEPVTVTWNSGSLSSGVHTFPAVLQSDLYTLSSSVTVPSSTWPSETVTCNVAHPASSTKVDKKIVPRDCGCKPCICTVPEEEEVFIFPPKPKDVLTITLTPKVTCVVVDISKDDPEVQFSWFVDDVEVHTAQTQPREEQFNSTFRSVSELPIMHQDWLNGKEFKCRVNSAAFPAPIEKTISKTKGRPKAPQVYTIPPPKEQMAKDKVSLTCMITDFFPEDITVEWQWNGQPAENYKNTQPIMDTDGSYFVYSKLNVQKSNWEAGNTFTCSVLHEGLHNHHTEKSLSHSPGK
# light: not shown
# notes: mouse IgG1 CH variant; copies: 2 + 2
# B2: H237-MB690/MRAL-k0 (antibody, mouse IgG1, kappa)
# heavy: B1 heavy with V230P, P231A, E233V, E235Y
# light: not shown
# notes: as for B1
# B3: H237-MB753/MRAL-k0 (antibody, mouse IgG1, kappa)
# heavy: B1 heavy with T229E, V230P, P231N, E233V, E235L, S294M
# light: not shown
# notes: as for B1
# B4: H237-MB637/MRAL-k0 (antibody, mouse IgG1, kappa)
# heavy: B1 heavy with T229E, V230P, P231A, E233V, E235N
# light: not shown
# notes: as for B1
# B5: H237-MB758/MRAL-k0 (antibody, mouse IgG1, kappa)
# heavy: B1 heavy with T229E, V230P, P231N, E233V, E235L, S294M, K330R
# light: not shown
# notes: as for B1
# B6: H237-MB755/MRAL-k0 (antibody, mouse IgG1, kappa)
# heavy: B1 heavy with T229E, V230P, P231N, E233V, E235L, S294L, N320D
# light: not shown
# notes: as for B1
# B7: H237-MB718/MRAL-k0 (antibody, mouse IgG1, kappa)
# heavy: B1 heavy with T229E, V230P, P231N, E233V, E235T
# light: not shown
# notes: as for B1
# B8: H237-MB757/MRAL-k0 (antibody, mouse IgG1, kappa)
# heavy: B1 heavy with T229E, V230P, P231N, E233V, E235L, S294M, N320D
# light: not shown
# notes: as for B1
# B9: H237-MB618/MRAL-k0 (antibody, mouse IgG1)
# heavy: B1 heavy with E234D, E235D
# light: not shown
# notes: as for B1
# B10: H237-MB687/MRAL-k0 (antibody, mouse IgG1, kappa)
# heavy: B1 heavy with T229E, V230P, E233V, E235L
# light: not shown
# notes: as for B1
# B11: H237-MB716/MRAL-k0 (antibody, mouse IgG1, kappa)
# heavy: B1 heavy with T229E, V230P, P231N, E233V, E235I
# light: not shown
# notes: as for B1
# B12: H237-MB752/MRAL-k0 (antibody, mouse IgG1, kappa)
# heavy: B1 heavy with T229E, V230P, P231N, E233V, E235L, S294L
# light: not shown
# notes: as for B1
# B13: H237-MB732/MRAL-k0 (antibody, mouse IgG1, kappa)
# heavy: B1 heavy with T229E, V230P, P231N, E235L
# light: not shown
# notes: as for B1
# B14: H237-MB624/MRAL-k0 (antibody, mouse IgG1, kappa)
# heavy: B1 heavy with T229E, V230D, P231Y, E233V, E235L
# light: not shown
# notes: as for B1
# B15: H237-MB715/MRAL-k0 (antibody, mouse IgG1, kappa)
# heavy: B1 heavy with T229E, V230P, P231N, E233V, E235V
# light: not shown
# notes: as for B1
# B16: H237-MB626/MRAL-k0 (antibody, mouse IgG1, kappa)
# heavy: B1 heavy with T229E, V230T, P231Y, E233V, E235L
# light: not shown
# notes: as for B1
# B17: H237-MB762/MRAL-k0 (antibody, mouse IgG1, kappa)
# heavy: B1 heavy with T229E, V230P, P231N, E233V, E235L, F292E
# light: not shown
# notes: as for B1
# B18: H237-MB643/MRAL-k0 (antibody, mouse IgG1, kappa)
# heavy: B1 heavy with T229E, V230N, P231Y, E233V, E235Y
# light: not shown
# notes: as for B1
# B19: H237-MB693/MRAL-k0 (antibody, mouse IgG1, kappa)
# heavy: B1 heavy with V230D, P231Y, E233V, E235Y
# light: not shown
# notes: as for B1
# B20: H237-MB638/MRAL-k0 (antibody, mouse IgG1, kappa)
# heavy: B1 heavy with T229I, V230P, P231A, E233V, E235N
# light: not shown
# notes: as for B1
# B21: H237-MB702/MRAL-k0 (antibody, mouse IgG1, kappa)
# heavy: B1 heavy with V230A, P231Y, E233V, E235N
# light: not shown
# notes: as for B1
# B22: H237-MB748/MRAL-k0 (antibody, mouse IgG1, kappa)
# heavy: B1 heavy with T229E, V230P, P231N, E233V, E235L, S263A
# light: not shown
# notes: as for B1
# B23: H237-MB617/MRAL-k0 (antibody, mouse IgG1, kappa)
# heavy: B1 heavy with E234S, E235D, F237D
# light: not shown
# notes: as for B1
# B24: H237-MB611/MRAL-k0 (antibody, mouse IgG1, kappa)
# heavy: B1 heavy with E234D
# light: not shown
# notes: as for B1
# B25: H237-MB641/MRAL-k0 (antibody, mouse IgG1, kappa)
# heavy: B1 heavy with T229E, V230A, P231Y, E233V, E235Y
# light: not shown
# notes: as for B1
# B26: H237-MB633/MRAL-k0 (antibody, mouse IgG1, kappa)
# heavy: B1 heavy with T229E, V230D, P231Y, E233V, E235N
# light: not shown
# notes: as for B1
# B27: H237-MB647/MRAL-k0 (antibody, mouse IgG1, kappa)
# heavy: B1 heavy with T229I, V230P, P231A, E233V, E235Y
# light: not shown
# notes: as for B1
# B28: H237-MB703/MRAL-k0 (antibody, mouse IgG1, kappa)
# heavy: B1 heavy with T229E, V230A, E233V, E235N
# light: not shown
# notes: as for B1
# B29: H237-MB731/MRAL-k0 (antibody, mouse IgG1, kappa)
# heavy: B1 heavy with T229E, V230P, P231A, E235L
# light: not shown
# notes: as for B1
# B30: H237-MB692/MRAL-k0 (antibody, mouse IgG1, kappa)
# heavy: B1 heavy with T229E, V230P, E233V, E235Y
# light: not shown
# notes: as for B1
# Target: T1, mouse FcγRII
# Test: SPR (Biacore), antibody captured on Protein L, mFcγR as analyte
# Procedure: (§1) Each altered antibody was analyzed for its interaction with each Fcγ receptor prepared above using Biacore T100 (GE Healthcare Japan Corp.), Biacore T200 (GE Healthcare Japan Corp.), Biacore A100, or Biacore 4000. The running buffer used was HBS-EP+ (GE Healthcare Japan Corp.). The assay temperature was set to 25° C. The sensor chips used were chips prepared by immobilizing Protein L (ACTIGEN or BioVision) onto Series S Sensor Chip CM5 (GE Healthcare Japan Corp.) or Series S Sensor Chip CM4 (GE Healthcare Japan Corp.) by the amine coupling method.
# (§2) In order to calculate the KD value of each altered antibody for FcγR, kinetic analysis was conducted according to the following method: first, the antibody of interest was captured onto any of these chips and allowed to interact with mFcγR diluted with a running buffer. For the obtained sensorgram, the assay results were globally fit into the 1:1 Langmuir binding model using Biacore Evaluation Software to calculate an association rate constant ka (L/mol/s) and a dissociation rate constant kd (1/s). From these values, the dissociation constant KD (mol/L) was calculated.
Kd [nM],relative mFcγRII-binding activity (mIgG1 = 1) [fold],Binder
67.9,3.14,B1
204,1.6,B2
36.8,5,B3
80.7,2.87,B4
21.5,8.57,B5
27.8,6.62,B6
247,1.08,B7
27.8,6.63,B8
156,1.63,B9
345,0.94,B10
52.8,5.07,B11
35.1,5.24,B12
321,0.84,B13
263,0.88,B14
236,1.14,B15
261,0.89,B16
48.1,5.12,B17
126,1.83,B18
267,1.22,B19
280,0.83,B20
339,0.96,B21
17.9,10.3,B22
255,0.84,B23
192,1.11,B24
143,1.62,B25
75.8,3.05,B26
200,1.16,B27
345,0.94,B28
238,1.13,B29
186,1.75,B30

# Target: T2, mouse FcγRIII
# Test: as above
# Procedure: as §1, §2
Kd [nM],relative mFcγRIII-binding activity (mIgG1 = 1) [fold],Binder
1770,0.18,B1
2710,0.19,B2
4260,0.09,B3
1890,0.17,B4
2110,0.17,B5
2500,0.15,B6
5560,0.08,B7
3230,0.11,B8
2730,0.13,B9
5320,0.1,B10
6150,0.08,B11
3280,0.11,B12
13700,0.03,B13
2870,0.11,B14
11900,0.04,B15
2370,0.14,B16
3220,0.12,B17
2000,0.16,B18
5410,0.09,B19
3380,0.1,B20
3520,0.14,B21
2060,0.18,B22
2100,0.15,B23
3420,0.09,B24
2100,0.15,B25
1640,0.2,B26
2800,0.12,B27
4900,0.1,B28
15300,0.03,B29
4440,0.12,B30
